Assay results taken from patent EP2469278A1, “Reagentless fluorescent biosensors from nanofitins, rational design methods to create reagentless fluorescent biosensors and methods of their use” (Institut Pasteur, priority 2010, dated 2012).
Residue numbers refer to the chain shown, from its start. In names and notes the source's numbering stands. Several values for one entry are separate records, joined by “and”; a condition that tells them apart may be missing. Equal values may be shown once. One block for each binder: values may come before it.

Assays:
hen egg-white lysozyme [1] = molecular target: T1, hen egg-white lysozyme (hen, UniProt P00698 19-147); assay: Biacore kinetics, HEL immobilised; Kd' = koff/kon
T1 construct: also called HEL

hen egg-white lysozyme [2] = molecular target: T1, hen egg-white lysozyme; assay: Biacore kinetics, HEL immobilised on CM5 chip, buffer E (reducing), 25 °C, 1:1 Langmuir model
hen egg-white lysozyme [3] = molecular target: T1, hen egg-white lysozyme; assay: Biacore, HEL immobilised; Kd'' dissociation constant at steady state
hen egg-white lysozyme [4] = molecular target: T1, hen egg-white lysozyme; assay: competition Biacore in solution, buffer D; free H4S measured on immobilised HEL
hen egg-white lysozyme [5] = molecular target: T1, hen egg-white lysozyme; assay: from Kd in solution: fluorescence titration of conjugate against competition Biacore of H4S(wt)
hen egg-white lysozyme [6] = molecular target: T1, hen egg-white lysozyme; assay: fluorescence titration in solution, 0.3 µM conjugate, buffer C, 25 °C (fit R = 0.72)
hen egg-white lysozyme [7] = molecular target: T1, hen egg-white lysozyme; assay: fluorescence titration in solution, 0.3 µM conjugate, buffer C, 25 °C
hen egg-white lysozyme [8] = molecular target: T1, hen egg-white lysozyme; assay: comparison of Kd in solution (fluorescence titration against competition Biacore)
bovine serum albumin = molecular target: T2, bovine serum albumin (bovine, UniProt P02769 25-607); assay: fluorescence titration with BSA, 0.3 µM conjugate, buffer C
T2 construct: Heterologous antigen used as specificity control; also called BSA

Kd (hen egg-white lysozyme [1]): 31 nM
koff (hen egg-white lysozyme [2]): 0.015 s⁻¹
kon (hen egg-white lysozyme [2]): 490000 M⁻¹ s⁻¹
Kd (hen egg-white lysozyme [3]): 18 nM
Kd (hen egg-white lysozyme [4]): 40.3 nM
B1: H4S(wt) (designed binder)
chain: MRGSHHHHHHGSVKVKFFWNGEEKEVDTSKIVWVKRAGKSVLFIYDDNGKNGYGDVTEKDAPKELLDMLARAEREKKLN
notes: Nanofitin derived from Sac7d (Sulfolobus acidocaldarius), H4 with Cys29 changed into Ser29; His-tagged; also called H4S protein; parental Nanofitin H4S(wt)

ΔΔG (conjugate against H4S(wt)) (hen egg-white lysozyme [5]): ≥ 1.5 kcal/mol
Kd (hen egg-white lysozyme [6]): 1230 nM
B2: H4S conjugate, IANBD fluorophore coupled at position Trp22 (designed binder)
chain: B1 chain with W33C
modifications: Cys at position 22 (H4S numbering) coupled to IANBD ester (ANBD)

Kd (hen egg-white lysozyme [7]): 98 nM
ΔF∞/F0 (maximal relative variation of fluorescence on HEL binding) (hen egg-white lysozyme [7]): 8.8
ΔΔG (conjugate against H4S(wt)) (hen egg-white lysozyme [5]): ≥ 0.5 kcal/mol and ≤ 1.2 kcal/mol
fold lower affinity than the parental protein H4S(wt) (hen egg-white lysozyme [8]): ~2 fold
Kd (bovine serum albumin): 1000 nM
B3: H4S(K24ANBD) (designed binder)
chain: B1 chain with K35C
modifications: Cys at position 24 (H4S numbering) coupled to IANBD ester (ANBD)
notes: also called H4S(Lys24ANBD); Lys24
